Assays:
[1] = target: Andes virus (ANDV) glycoprotein C, wild type, from virus-like particles (Andes virus strain Chi-7913); assay: sucrose gradient sedimentation
[2] = target: Puumala virus (PUUV) glycoprotein C ectodomain, soluble GC (residues 659-1106 of GPC) (Puumala virus P360 strain); assay: crystal structure

| Substance | stoichiometry N [1] | stoichiometry N [2] |
| --- | --- | --- |
| Andes virus (ANDV) glycoprotein C, wild type, from virus-like particles (natural protein) | 3 |  |
| Puumala virus (PUUV) glycoprotein C ectodomain, soluble GC (residues 659-1106 of GPC) (domain or fragment) |  | 3 |

— article PMC5081248
